The values that follow come from article PMC6158717.

Data set [1] has as its target TGIF1-HD (160-250) (Homo sapiens, UniProt Q15583 160-250). Description: ITC. (Isothermal titration calorimetry measures the heat released or taken up as one component is titrated into another.)
In data set [2] the target is TGIF1-HD (171-250) (Homo sapiens, UniProt Q15583 171-250). Nature of the data set: ITC.
The target of data set [3] is TGIF1-HD R167A/R168A (Homo sapiens, UniProt Q15583 161-250, R167A;R168A). Nature of the data set: X-ray 3.25 A.
Chain of TGIF1-HD R167A/R168A (Q15583 161-250 R167A/R168A): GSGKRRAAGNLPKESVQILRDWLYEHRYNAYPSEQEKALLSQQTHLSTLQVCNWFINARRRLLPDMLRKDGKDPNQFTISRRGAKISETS

Chain of TGIF1-HD (171-250) (Q15583 171-250): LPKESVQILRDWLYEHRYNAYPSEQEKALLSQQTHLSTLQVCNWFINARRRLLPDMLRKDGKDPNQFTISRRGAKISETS
Chain of TGIF1-HD (160-250) (Q15583 160-250): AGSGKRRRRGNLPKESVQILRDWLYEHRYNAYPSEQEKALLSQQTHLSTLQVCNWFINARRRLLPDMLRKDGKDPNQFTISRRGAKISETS

B1: canonical TGACA palindrome 16mer (dsDNA)
DNA 1: ATTGACAGCTGTCAAT
DNA 2: ATTGACAGCTGTCAAT
Broadly, the Kd is the concentration at which binding is half-saturated. Low readings indicate a tighter complex, high ones a looser complex. For the molecule B1, the Kd in data set [1] is 170 ± 20 nM; in data set [2], 728.1 ± 3 nM. The binding result in data set [3] is reported as “binds”.
